Test results as given in patent US20100184636.

Target: endogenous raptor (UniProt Q8N122)
Sequence (Q8N122 whole entry, looked up): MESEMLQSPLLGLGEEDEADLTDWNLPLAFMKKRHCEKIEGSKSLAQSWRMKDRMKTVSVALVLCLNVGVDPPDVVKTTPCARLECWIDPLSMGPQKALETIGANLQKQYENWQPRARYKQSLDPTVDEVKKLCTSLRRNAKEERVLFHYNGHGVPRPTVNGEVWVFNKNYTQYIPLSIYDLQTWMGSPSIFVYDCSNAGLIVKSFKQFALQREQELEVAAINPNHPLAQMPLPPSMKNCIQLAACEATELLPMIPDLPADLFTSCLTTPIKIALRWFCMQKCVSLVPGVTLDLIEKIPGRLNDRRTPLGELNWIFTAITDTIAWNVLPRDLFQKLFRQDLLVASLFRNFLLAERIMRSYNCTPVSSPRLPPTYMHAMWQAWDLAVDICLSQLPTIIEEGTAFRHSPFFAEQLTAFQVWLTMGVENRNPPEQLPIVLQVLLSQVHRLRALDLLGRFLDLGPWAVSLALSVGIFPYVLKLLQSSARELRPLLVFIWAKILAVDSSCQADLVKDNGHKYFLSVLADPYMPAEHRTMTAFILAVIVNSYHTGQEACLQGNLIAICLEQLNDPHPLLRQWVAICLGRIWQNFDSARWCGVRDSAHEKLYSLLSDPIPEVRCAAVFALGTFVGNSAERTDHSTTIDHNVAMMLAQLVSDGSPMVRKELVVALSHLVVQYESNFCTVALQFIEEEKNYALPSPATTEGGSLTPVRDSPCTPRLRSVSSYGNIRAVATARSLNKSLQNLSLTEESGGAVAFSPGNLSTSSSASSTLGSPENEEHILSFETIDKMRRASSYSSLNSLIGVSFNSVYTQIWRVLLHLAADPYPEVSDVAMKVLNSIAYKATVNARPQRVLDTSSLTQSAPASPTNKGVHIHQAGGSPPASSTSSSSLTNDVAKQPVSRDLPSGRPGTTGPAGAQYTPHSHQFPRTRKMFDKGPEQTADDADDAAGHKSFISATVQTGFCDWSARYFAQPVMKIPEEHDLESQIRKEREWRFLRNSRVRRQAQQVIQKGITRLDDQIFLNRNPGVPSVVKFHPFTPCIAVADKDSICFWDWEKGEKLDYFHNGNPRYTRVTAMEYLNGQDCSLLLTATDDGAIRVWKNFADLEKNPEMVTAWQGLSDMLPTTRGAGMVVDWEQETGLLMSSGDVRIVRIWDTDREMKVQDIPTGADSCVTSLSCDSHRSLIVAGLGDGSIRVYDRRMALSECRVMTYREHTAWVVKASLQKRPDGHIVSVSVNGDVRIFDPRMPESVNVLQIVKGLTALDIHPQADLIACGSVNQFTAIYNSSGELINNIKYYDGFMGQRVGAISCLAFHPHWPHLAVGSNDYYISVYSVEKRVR

Substance: phospholipase D2, wild type (PLD2^wt)
- exogenous PA-dependent phosphorylation of S6K1 (add-back): the exogenous PA-dependent phosphorylation of S6K1 was rescued by PLD2^wt and PLD2^K758R, but not by PLD2^F265A and PLD2^E266R
